From paper PMC8605372

Key:
His169 = His169 (UniProt position 169, KSKVTHVMIRC); assay: kinetics (stopped-flow fluorescence/FRET binding and displacement); settings: 283 K according to Methods (stopped-flow binding and displacement) and the Figure S2 legend. Results text states 298 K.; 50 mM buffer, no added salt stated for the pH series; 50 mM acetate (pH 5.0, 5.5), 50 mM Bis-Tris (pH 6.0, 6.5), 50 mM Hepes (pH 7.0, 7.5), 50 mM Tris-HCl (pH 8.0); 2 mM DTT in all; Folded domain, cysteines reduced. The binding reaction with the phosphopeptide was followed, so the pKa is derived from both kon and koff.
[1] = target: dansyl-Gab2(637-649) peptide (UniProt Q9UQC2); assay: Stopped-flow fluorescence (FRET), displacement kinetics; settings: 298 K in Results, 283 K in Methods (conflict in the article), no added salt (50 mM buffer only), 50 mM acetate at pH 5.0 and 5.5, 50 mM Bis-Tris at pH 6.0 and 6.5, 50 mM Hepes at pH 7.0 and 7.5, 50 mM Tris-HCl at pH 8
[2] = target: dansyl-Gab2(637-649) peptide (UniProt Q9UQC2); assay: Stopped-flow kinetics; K D from the rate constants of C1 and C2; settings: 298 K in Results, 283 K in Methods (conflict in the article), no added salt (50 mM buffer only), 50 mM acetate at pH 5.0 and 5.5, 50 mM Bis-Tris at pH 6.0 and 6.5, 50 mM Hepes at pH 7.0 and 7.5, 50 mM Tris-HCl at pH 8
[3] = target: dansyl-Gab2(637-649) peptide (UniProt Q9UQC2); assay: Stopped-flow fluorescence (FRET Trp112 to dansyl), pseudo-first-order association kinetics; settings: 298 K in Results, 283 K in Methods (conflict in the article), no added salt (50 mM buffer only), 50 mM acetate at pH 5.0 and 5.5, 50 mM Bis-Tris at pH 6.0 and 6.5, 50 mM Hepes at pH 7.0 and 7.5, 50 mM Tris-HCl at pH 8
[4] = target: dansyl-Gab2(637-649) peptide (UniProt Q9UQC2); assay: Stopped-flow fluorescence (FRET), pseudo-first-order association kinetics, ionic-strength series; settings: pH 8.0, 298 K in Results, 283 K in Methods (conflict in the article)

Row | k off ([1]; pH 5.0) [s⁻¹] | k off ([1]; pH 5.5) [s⁻¹] | k off ([1]; pH 6.0) [s⁻¹] | k off ([1]; pH 6.5) [s⁻¹] | k off ([1]; pH 7.0) [s⁻¹] | k off ([1]; pH 7.5) [s⁻¹] | k off ([1]; pH 8.0) [s⁻¹] | K D ([2]; pH 5.0) [µM] | K D ([2]; pH 5.5) [µM] | K D ([2]; pH 6.0) [µM] | K D ([2]; pH 6.5) [µM] | K D ([2]; pH 7.0) [µM] | K D ([2]; pH 7.5) [µM] | K D ([2]; pH 8.0) [µM] | k on ([3]; pH 5.0) [M⁻¹ s⁻¹] | k on ([3]; pH 5.5) [M⁻¹ s⁻¹] | k on ([3]; pH 6.0) [M⁻¹ s⁻¹] | k on ([3]; pH 6.5) [M⁻¹ s⁻¹] | k on ([3]; pH 7.0) [M⁻¹ s⁻¹] | k on ([3]; pH 7.5) [M⁻¹ s⁻¹] | Substance | also measured
1 | – | – | – | – | – | – | – | – | – | – | – | – | – | – | – | – | – | – | – | – | Tyrosine-protein phosphatase non-receptor type 11 (SHP2), C-terminal SH2 domain (C-SH2) (Homo sapiens (inferred; organism not stated in the article)) | pKa (His169): 7.1 ± 0.2
2 | 80 | 79 | 112 | 141 | 147 | 234 | 210 | 3.8 | 2.8 | 4.7 | 6.9 | 6.8 | 17.2 | 21.3 | 2.11e+07 | 2.86e+07 | 2.41e+07 | 2e+07 | 2.2e+07 | 1.36e+07 | SHP2 (PTPN11) C-terminal SH2 domain, wild type | k on ([3]; pH 8.0): 9.9e+06 M⁻¹ s⁻¹; k on ([4]; highest of the series: 50 mM Tris-HCl + 150 mM NaCl, Tris-HCl 50 mM pH 8.0): 6.4e+06 ± 500000 M⁻¹ s⁻¹; k on ([4]; lowest of the series: 10 mM Tris-HCl, no NaCl, Tris-HCl 10 mM pH 8.0): 3.14e+07 ± 3.8e+06 M⁻¹ s⁻¹
3 | 103 | 98 | 105 | 130 | 170 | 204 | 196 | 6.6 | 3.4 | 5.6 | 6.4 | 11 | 20 | 14 | 1.6e+07 | 2.9e+07 | 1.9e+07 | 2e+07 | 1.5e+07 | 1.1e+07 | SHP2 C-SH2 domain H116A H116A | k on ([3]; pH 8.0): 1.4e+07 M⁻¹ s⁻¹
4 | 125 | 114 | 116 | 132 | 125 | 172 | 162 | 5.3 | 2.9 | 5.4 | 3.4 | 3.4 | 13 | 13 | 2.4e+07 | 4e+07 | 2.1e+07 | 3.9e+07 | 3.7e+07 | 1.3e+07 | SHP2 C-SH2 domain H196A H196A | k on ([3]; pH 8.0): 1.2e+07 M⁻¹ s⁻¹
5 | 154 | 127 | 149 | 226 | 183 | 225 | 148 | 14.3 | 4 | 7.4 | 25 | 23 | 17 | 10.8 | 1.1e+07 | 3.2e+07 | 2e+07 | 9e+06 | 8e+06 | 1.3e+07 | SHP2 C-SH2 domain H143A H143A | k on ([3]; pH 8.0): 1.4e+07 M⁻¹ s⁻¹
6 | 80 | 69 | 91 | 143 | 168 | 219 | 287 | 3.6 | 2.4 | 2 | 10.4 | 8.5 | 12 | 27 | 2.2e+07 | 2.9e+07 | 4.5e+07 | 1.4e+07 | 2e+07 | 1.8e+07 | SHP2 C-SH2 domain H132A H132A | k on ([3]; pH 8.0): 1.1e+07 M⁻¹ s⁻¹
7 | 92 | 102 | 148 | 125 | 144 | 253 | 263 | 8.5 | 3.2 | 2.9 | 5.2 | 4.7 | 12 | 12 | 1.08e+07 | 3.2e+07 | 5.2e+07 | 2.4e+07 | 3.1e+07 | 2.1e+07 | SHP2 C-SH2 domain H114A H114A | k on ([3]; pH 8.0): 2.3e+07 M⁻¹ s⁻¹
